± gives the half width of the 95% confidence interval.
Columns and labels:
[1] = folding stability dG unfold from trypsin proteolysis; higher = more stable
How it was run: (§1)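 Bayesian fitting of sequencing counts gave K50 for each design. Unfolding free energy followed by setting this against a sequence-predicted unfolded-state K50 and a shared folded-state K50, either per protease or with trypsin and chymotrypsin combined. The designs, under 80 residues and lacking cysteine, were digested in a PA-tagged cDNA display format at 11 threefold-diluted protease concentrations and without protease, and only those with AlphaFold2 dimer inter-PAE above 15 were kept.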

[2] = folding stability dG unfold from chymotrypsin proteolysis; higher = more stable
How it was run: as §1

[3] = folding stability dG unfold (combined trypsin and chymotrypsin); higher = more stable
How it was run: as §1

| Sequence | folding stability dG unfold [1] [kJ/mol] | folding stability dG unfold [2] [kJ/mol] | folding stability dG unfold [3] [kJ/mol] |
| --- | --- | --- | --- |
| SAGGFTIEELAEKFPNVEVYVQRFGNKYLIQFEFEDKDRKYQVVIKYDGPGKIDIKVMPPNQDAEEALSAGG [r13_859_TrROS] | 8.77 ± 0.289 | 12.95 ± 0.0795 | 11.7 ± 0.301 |
| SAGGFVTFKAPPVLIEAFKKAGLTPSEAKTLLLPVKFGDKEVVVEVTFYPETGEVKVKVLSFGTEFEAESAG [r5_545_TrMRF] | 9.31 ± 0.289 | 14.1 ± 0.167 | 12.8 ± 0.544 |
| SAGGGAPNKPVGKETFTVKIGDKWVKVEVTHYATSGTAEVKVTGPNGGPLGTFTVKIDPEKGGVYFGSAGGS [r16_798_TrMRF] | 3.05 ± 0.234 | 10.2 ± 0.31 | 8.82 ± 0.586 |
| SAGGGFDIITITFGGIPITLTLEGEEEVKKFIEELPKLGIKTEILEKEKKIGPDGKPYVEVKVKAIPSAGGS [r8_336_JUSTAS] | 1.25 ± 0.544 | 5.99 ± 0.586 | 4.99 ± 0.669 |
| SAGGGHMMPNITVDVEEEVFTLPDGSILTRTTVTVTLPNGKKTTVETEYFYDTKTGTVSSKVVKVEASAGGS [r16_166_JUSTAS] | 11.4 ± 0.46 | 14.4 ± 0.343 | 13.3 ± 0.418 |
| SAGGGISIVSGDPEITPEKAEAIAAELAAILEEKGFTPKDAELARLPGGRILVTITVDDGKPIVFSLSAGGS [r8_485_TrMRF] | 7.4 ± 0.172 | 4.8 ± 0.0795 | 6.23 ± 0.117 |
| SAGGGKKTKYVLLTFNPKEVKAEDLEKEILKKGAEIYIGDKPIDPGKGVKEVMKANPNTTFLVKIYDSAGGS [r8_38_TrMRF] | 4.66 ± 0.46 | 6.72 ± 1.76 | 4.68 ± 1.34 |
| SAGGGKLFVTEDAVLLELLYPETGEPYLAVFNPPTGLVTVYFPNRLKALFKIDPDGNLTLVKIEPANSAGGS [r16_127_TrMRF] | 8.63 ± 0.389 | 12.46 ± 0.117 | 11.3 ± 0.326 |
| SAGGGKTVEVTIEVPGENAVVYIKVYDKDKPISVFPAEFIPPTGTATFTIDVPEDAEITAEVALPEEASAGG [r13_977_TrMRF] | 0.443 ± 0.138 | 3.78 ± 0.586 | 2.87 ± 0.381 |
| SAGGGLALRLEVETERVEREVFDADGRLVAREEVEVRRVRLELVPLPPAPPPPTVTVRPGDPRDPRLRSAGG [r13_508_TrROS_Hall] | 6.38 ± 0.544 | 13.3 ± 0.167 | 11.2 ± 0.544 |
| SAGGGLGADALAKKFKELFPNAKVEKLPNGKVLFYIPETGKLIEIYDLDDEQIIKIIDPNTPKVYIISAGGS [r16_478_TrMRF] | 7.01 ± 0.322 | 4.13 ± 0.544 | 6.01 ± 0.46 |
| SAGGGMEIRLTIYRVDPETGVETSVEKEVTLEEAKEIVKEIPEEGEYTVRVTRPDRPEDVSPEELKLLSAGG [r13_254_JUSTAS] | 1.03 ± 0.46 | -0.0901 ± 0.669 | 0.805 ± 0.305 |
| SAGGGMESRTLTLPKEEIEKVKEEIKKASNLDIKVTTKKLPNGEYELTITFSNPEDVEKFEKKLGIESAGGS [r16_172_JUSTAS] | 8.31 ± 0.669 | 12.8 ± 0.247 | 11.3 ± 0.628 |
| SAGGGMLEVTREPSPDGVTRYVVTVPADRTVTVTRPDGTTTTTAAPDADAVITYTVPPGTPVAVSLTPSAGG [r13_82_JUSTAS] | 2.32 ± 0.126 | -2.19 ± 1.17 | 0.867 ± 0.385 |
| SAGGGMMVLKVSQPVLLLSTVTLPNGFPKFLPVSPLSLETTVTFTGSDQDAEELAAELKAQGATVTEESAGG [r13_452_JUSTAS] | 2.45 ± 0.105 | 3.01 ± 0.502 | 2.99 ± 0.326 |
| SAGGGMMWTVTFYPKETDTPITFPVPKEYITEIDEENNKIVIKKPPGETIEITDFNKIKSIEITPLPSAGGS [r8_111_JUSTAS] | 2.26 ± 0.167 | 2.21 ± 0.753 | 2.45 ± 0.628 |
| SAGGGMQAVSPVKTETKTSPDGTTTTTTTTRYPDGTVVVPVTETSPTGGAKKVATTTVSLGPPSPALASAGG [r13_494_JUSTAS] | -1.32 ± 0.356 | 4.46 ± 0.138 | 2.51 ± 0.389 |
| SAGGGMSTTTETTIRIYVKDPQGNPVFVAELTVTVTTSPSGEVTIHLPPEFLKALPPNYTIAKIEVTSAGGS [r16_295_JUSTAS] | 16.5 ± 0.879 | 17.3 ± 0.36 | 17 ± 0.347 |
| SAGGGMSTYTITINIVIDPKEKKVPKPPLKDPFKLPPLKTIPITITAETSDPAVAAALEKAVKEALGLSAGG [r13_35_JUSTAS] | 7.24 ± 0.159 | 9.16 ± 0.226 | 8.39 ± 0.289 |
| SAGGGMTFNFTAPDGTPYEDVTTTPLPDGSTLVTVTQEDPKNPGVVTVTLIRLPSGADALEVTSGPVVSAGG [r13_370_JUSTAS] | 4.07 ± 0.293 | 3.36 ± 0.364 | 3.95 ± 0.397 |
| SAGGGMTPTITVTVHYPGETVTITLSSIEEALEYLKKQGLPINPTHSDPNTLVIEFPDGRTVTITLSSAGGS [r8_365_JUSTAS] | 15.3 ± 0.628 | 17.4 ± 0.669 | 16.7 ± 0.628 |

| Sequence | folding stability dG unfold [1] [kJ/mol] | folding stability dG unfold [2] [kJ/mol] | folding stability dG unfold [3] [kJ/mol] |
| --- | --- | --- | --- |
| SAGGGMVRPSIKITKHPDTYVATVTVTHPHRPVTVTLPFSSEPEAISEAEKIVEELIATPVPSPAGASAGGS [r16_24_JUSTAS] | 3.24 ± 0.155 | 3.48 ± 0.301 | 3.52 ± 0.46 |
| SAGGGNKPKIKVLLFFPDRVVELEFESPEEFIRALEEAGFPVIPVSEDSKYLVIEFPDGLRALADFSSAGGS [r8_365_TrMRF] | 10.2 ± 0.205 | 10.36 ± 0.0586 | 10.4 ± 0.192 |
| SAGGGNVTKTSTTTLPNGTTLVTYTGTSPSSAGSKNLSLLSLPFDVTVTKVEFDPNTGKVTIETVIPPSAGG [r13_413_JUSTAS] | 2.16 ± 0.247 | 5.23 ± 0.586 | 4.09 ± 0.544 |
| SAGGGPAAEVARLLREAGYDVEVEVEVFSREENPPLLPGEPLVVRVRVYATPPTGPRRPLGEFVVPVGSAGG [r13_874_TrMRF] | 6.16 ± 0.146 | 10.4 ± 0.121 | 9.1 ± 0.251 |
| SAGGGPAKEVPILALIKARNPETGEEYELPIVITANSKEDVEAAKGLVDTLAEALRELGFTEVEVEIGSAGG [r13_360_TrMRF] | 12.4 ± 0.289 | 11.4 ± 0.176 | 11.9 ± 0.243 |
| SAGGGPDEVSEVKVSSTTTDPATGKTYTVDTTTVTTPGTVTTNTTYTVHDPVTGAVTTETTTTTTPPGSAGG [r13_206_JUSTAS] | 2.44 ± 0.142 | 2.01 ± 0.314 | 2.47 ± 0.188 |
| SAGGGPDLVIDVEILEIRVEPEPGKTATIRVRALIYNPETDTWTLAEFEIRIPDDGSVEVRFRVEPLRSAGG [r13_917_TrMRF] | 12.9 ± 0.343 | 17.3 ± 0.209 | 15.7 ± 0.31 |
| SAGGGPLSPGSVPVEEEVTEVVEDPATGTVTTRSRVRYPDGVEVEVTTTTPAPGLPEVSTTEVTVRPASAGG [r13_894_JUSTAS] | 4.09 ± 0.184 | 3.97 ± 0.0753 | 3.89 ± 0.46 |
| SAGGGPPAKPVYLTVTVTTEDPVETAKKVEEEVKKLFPDAEILKVEVKKNPETNLYTVTVYVKKLVKSAGGS [r8_120_TrMRF] | 11.2 ± 0.314 | 19.2 ± 0.331 | 18 ± 0.385 |
| SAGGGPPSSMVKKTYTVTGTDPDALAAAVRAAIAAAHPDVEITEVTVSRDPSSDRYTVTVDVLSSVASAGGS [r8_120_JUSTAS] | 9.3 ± 0.151 | 11.04 ± 0.0711 | 10.5 ± 0.213 |
| SAGGGPSMTITVTVSSSELTSGSGPGPLTPEDVAKRLEAELPPGNVTVTVVEVDPATGEVTVRIEVESAGGS [r16_284_JUSTAS] | 4.89 ± 0.268 | 4.61 ± 0.142 | 4.88 ± 0.322 |
| SAGGGREIKVEFEIPHPNGNQMRITVTIYRSPGGIRIKIPVSYTDPEYRDYMREWAEYLARRIAKELSAGGS [r8_416_TrROS] | 12.8 ± 0.372 | 14.94 ± 0.092 | 14.5 ± 0.197 |
| SAGGGRPILFRPPDGSVEVVPVPADATLEEVKEVAEAAAAARGYTELSFDPATETVTIDLGGDRVEAASAGG [r13_572_JUSTAS] | -6.11 ± 1.97 | 3.45 ± 0.1 | 1.78 ± 0.205 |
| SAGGGSATLVGIFPEKGYLVVLTITTDGDDFSIGELKVTFEPLDDDSVKATFYTPSGQKHDAIGLPVASAGG [r13_515_TrMRF] | 6.43 ± 0.222 | 5.94 ± 0.418 | 6.13 ± 0.247 |
| SAGGGSLEKIREAGKKGYLVRIELETGERRVIPIEDLIRDPRFGPDVPLAELRVRRIELLPPDDGLPLSAGG [r13_587_TrMRF] | 5.32 ± 0.151 | 3.72 ± 0.289 | 4.72 ± 0.259 |
| SAGGGSMAASSVTSEEKPLPDGSSLSIPEITRPDNVATLTVEYYDPKTGTKYTFTLTIPISPDDTVTLSAGG [r13_190_JUSTAS] | 7.49 ± 0.36 | 8.22 ± 0.251 | 8.33 ± 0.628 |
| SAGGGSMIKKTLEEEPVGESTVSKSTVTLPDGTPVSVTSTTTKVGNTWTTTTTTNYGSSTTTTTTTTSAGGS [r16_476_JUSTAS] | -2.67 ± 0.879 | 1.75 ± 0.46 | 0.652 ± 0.628 |
| SAGGGSMTTVRLTREINLPSSVSDEEIIEEIKEELPENYEILEVKIEKDPKTGKYYIEAEVKIPKLGSAGGS [r16_396_JUSTAS] | 3.78 ± 0.113 | 9.495 ± 0.0837 | 7.89 ± 0.234 |
| SAGGGSSSLPAVPVSVETFTFPYKTEEEAKAAAEELAKKLEAEDGKPVKVEVSFDPATGTATVTITVVSAGG [r13_517_JUSTAS] | 17.6 ± 0.669 | 15.86 ± 0.151 | 15.96 ± 0.146 |
| SAGGGSSSTTLTLREVTEVIVIPVPPEEEELAEELAKKYESQGIKVELERLPDGTWKLTLTYYRGVSLSAGG [r13_702_JUSTAS] | 4.82 ± 0.46 | 3.46 ± 0.628 | 4.3 ± 0.339 |
| SAGGGSSVLSETVSVDPNNVTTTTTTYKAGDTTSTTTTTTTTTPPVPNLPLPPPPPVSPEAIALGLLLSAGG [r13_760_JUSTAS] | 2.71 ± 0.218 | -0.147 ± 0.753 | 2.01 ± 0.247 |

From the supplement of paper PMC12764529
